Reference: article PMC11154708

Molecular target: Rad51 (S. cerevisiae) (UniProt P25454)
Test: co-IP; Rad51 immunoprecipitated with anti-Rad51 antibody from yeast lysates (Rad51 overexpressed from a plasmid), IP fraction blotted for Hsp82 and Aha1; strains WT, hda1Δ, aha1Δ and hsp82 mutant strains (K27Q, K27R, K274Q, K274R, K178R); rad51Δ as negative control; blots quantified with Image J

Chain of UniProt P25454 (P25454 whole entry): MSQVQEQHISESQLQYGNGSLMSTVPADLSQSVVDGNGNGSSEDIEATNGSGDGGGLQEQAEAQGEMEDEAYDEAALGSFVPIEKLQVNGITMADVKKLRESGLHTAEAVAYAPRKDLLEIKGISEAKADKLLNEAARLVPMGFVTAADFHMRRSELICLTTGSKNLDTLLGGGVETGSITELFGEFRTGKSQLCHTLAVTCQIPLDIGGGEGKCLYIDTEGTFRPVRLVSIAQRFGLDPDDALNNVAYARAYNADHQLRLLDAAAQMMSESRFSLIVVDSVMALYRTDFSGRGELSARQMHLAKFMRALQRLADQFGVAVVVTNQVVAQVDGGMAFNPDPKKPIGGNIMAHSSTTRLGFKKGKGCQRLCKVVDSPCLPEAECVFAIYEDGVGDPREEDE

**Q.** For “Hsp82 (WT) (from UniProt P02829 1-709) (natural protein)”, which fold reduction of association in the aha1Δ strain against the WT strain is on record?
**A.** 2 fold

**Q.** What about the fold reduction of association in the hda1Δ strain against the WT strain of the same substance?
**A.** 5 fold
